For 1 molecule, koff and Kd results are on record in publication PMC12363188 (2025).

What is called koff is the rate constant with which the complex falls apart. A higher koff goes with fast dissociation. Usually Kd stands for the equilibrium constant for the complex coming apart. A high value points to lower affinity.

Experiment [1] addresses T1, SARS-CoV-2 S-RBD (residues 330 to 530) (SARS-CoV-2, UniProt P0DTC2 330-530). Nature of the experiment: SPR. (Surface plasmon resonance follows binding to a sensor surface in real time, without labels.)
Experiment [2] has as its target T1, SARS-CoV-2 S-RBD (residues 330 to 530). Nature of the experiment: SPR. This is another data set of the same source.

B1: Rhinolophus pusillus bat ACE2 ectodomain (residues 18 to 615) (domain or fragment)
chain: QSITEDKAKKFLNDFNSEAEDLSYQSSLASWDYNTNISDENVQKMDEAGAKWSAFYEEQSKIAKNYPLEEIQTDIVKRQLQILQQSGSPVLSEDKSKRLNSILNAMSTIYSTGKVCKPNNPQECLLLEPGLDNIMGTSKDYHERLWAWEGWRAEVGKQLRPLYEEYVVLKNEMARGYHYEDYGDYWRRDYETEESSGPGYSRDQLMKDVDRIFTEIKPLYEHLHAYVRAKLMDTYPLHISPTGCLPAHLLGDMWGRFWTNLYPLTVPFGQKPNIDVTDEMVKQGWDANRIFKEAEKFFVSVGLPNMTEGFWNNSMLTEPGDGRKVVCHPTAWDLGKGDFRIKMCTKVTMEDFLTAHHEMGHIQYDMAYASQPYLLRNGANEGFHEAVGEVMSLSVATPKHLKTMGLLSPDFREDDETEINFLLKQALNIVGTLPFTYMLEKWRWMVFKGEIPKEEWMKKWWEMKREIVGVVEPVPHDETYCDPASLFHVANDYSFIRYYTRTIFEFQFHEALCRIAQHNGPLHKCDISNSTDAGKKLHQMLSVGKSQAWTKTLEDIVGSRNMDVGPLLRYFKPLYTWLQEQSRKSYVGWNTDWSPYSD
In turn, B1 showed a koff in experiment [1] of 0.00152 s⁻¹. In experiment [2], this molecule showed a dissociation constant (Kd) of 45.3 nM.
